According to paper PMC8585875:

Tests used:
[1] = target: H6-Rap80(1-137)-7A-Linker (human) (UniProt Q96RL1); assay: pull-down; H6-Rap80(1-137)-7A-Linker on Ni-NTA agarose; 3.5 µM hybrid chain in 50 µl; 50 mM TRIS pH 7.5, 150 mM NaCl, 2 mM TCEP, 0.1% NP-40; 1 h at 4 °C; Coomassie SDS-PAGE, densitometry normalised to Rap80
[2] = target: H6-Rap80(35-124)-S18C-C70S-C121S-7A-Linker, Atto488-labelled (human) (UniProt Q96RL1); assay: fluorescence polarisation; fluorescence anisotropy; hybrid chain titrated to 300 nM Atto488-labelled Rap80(35-124); 20 mM Tris pH 6.8, 100 mM NaCl, 4 mM DTT; single-site binding model

fold affinity against the linearly linked hybrid chain (densitometry of the pull-down) [1] [fold]	Kd [2] [nM]	Substance
2	–	K63-diUb-K21-SUMO2 hybrid chain (Srt2A/Srt5M-generated) (from UniProt P0CG48 1-76; P0CG48 1-76; P61956 1-95) (complex)
–	1200	linear diUb-SUMO2 hybrid chain, wt/LPT-linked (from UniProt P0CG48 1-76; P0CG48 1-76) (complex)
